Assay results published in paper PMC4919504.

Legend:
Assay in all cases: anti-GFP IP, LC-MS/MS spectral counts
Numa1 = Numa1 (UniProt Q14980); conditions: sites S1448
Beta-pix = Beta-pix (UniProt Q14155); conditions: reference: S1448A GFP-Scribble; sites S1448
Git1 = Git1 (UniProt Q9Y2X7); conditions: reference: S1448A GFP-Scribble; sites S1448
Vimentin = Vimentin (UniProt P08670); conditions: reference: S1448A GFP-Scribble; sites S1448
[1] = reference: wild type GFP-Scribble

Row | other: spectral counts (Numa1; [1]) | other: spectral counts (Beta-pix) | other: spectral counts (Git1) | other: spectral counts (Numa1; reference: S1448A GFP-Scribble) | other: spectral counts (Vimentin) | Substance
1 | weaker; reference 34 | – | – | – | – | Scribble (from UniProt Q14160) S1448A GFP-Scribble
2 | same; reference 34 | same; reference 49 | same; reference 72 | stronger; reference 8 | same; reference 277 | Scribble (from UniProt Q14160) S1448D GFP-Scribble
